Usually stoichiometry N stands for a count of units in the complex or per binding partner.

The target of the assay is Ib-pore (heptameric translocation channel of Clostridium perfringens iota toxin component Ib, after (Clostridium perfringens)). Description: cryo-EM structure.

Substance “Ib-pore (heptameric translocation channel of Clostridium perfringens iota toxin component Ib, after (natural protein)” gave a stoichiometry N of 7.
